Assay results from patent publication US20260248837A1.

Biological target: human CXCR4 (human) (UniProt P61073)
Assay: cell-based or functional assay

UniProt P61073, sequence (P61073 1-350): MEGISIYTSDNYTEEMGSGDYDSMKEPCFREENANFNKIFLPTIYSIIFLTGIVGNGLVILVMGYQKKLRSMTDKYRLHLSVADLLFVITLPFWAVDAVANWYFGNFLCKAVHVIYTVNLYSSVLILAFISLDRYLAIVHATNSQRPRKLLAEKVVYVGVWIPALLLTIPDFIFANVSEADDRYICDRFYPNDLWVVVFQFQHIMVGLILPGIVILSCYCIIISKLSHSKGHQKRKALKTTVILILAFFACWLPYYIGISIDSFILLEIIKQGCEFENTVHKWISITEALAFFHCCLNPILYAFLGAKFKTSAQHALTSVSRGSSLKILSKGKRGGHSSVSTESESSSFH

In the case of “human CXCL12 (human CXCL12α, L-CXCL12) (ligand)”, the migration of Jurkat cells (chemotaxis assay), half-maximal stimulation is reported as 0.3 nM and the migration of Nalm-6 cells (chemotaxis assay), half-maximal stimulation is reported as 0.3 nM.
